For one assay, the target named is T1, Human CNTN-4 protein (human, UniProt Q8IWV2 19-1000, limits assumed).
T1 construct: soluble antigen run over the captured antibody; also called human CNTN4 (SPR analyte)
T1 sequence (looked up): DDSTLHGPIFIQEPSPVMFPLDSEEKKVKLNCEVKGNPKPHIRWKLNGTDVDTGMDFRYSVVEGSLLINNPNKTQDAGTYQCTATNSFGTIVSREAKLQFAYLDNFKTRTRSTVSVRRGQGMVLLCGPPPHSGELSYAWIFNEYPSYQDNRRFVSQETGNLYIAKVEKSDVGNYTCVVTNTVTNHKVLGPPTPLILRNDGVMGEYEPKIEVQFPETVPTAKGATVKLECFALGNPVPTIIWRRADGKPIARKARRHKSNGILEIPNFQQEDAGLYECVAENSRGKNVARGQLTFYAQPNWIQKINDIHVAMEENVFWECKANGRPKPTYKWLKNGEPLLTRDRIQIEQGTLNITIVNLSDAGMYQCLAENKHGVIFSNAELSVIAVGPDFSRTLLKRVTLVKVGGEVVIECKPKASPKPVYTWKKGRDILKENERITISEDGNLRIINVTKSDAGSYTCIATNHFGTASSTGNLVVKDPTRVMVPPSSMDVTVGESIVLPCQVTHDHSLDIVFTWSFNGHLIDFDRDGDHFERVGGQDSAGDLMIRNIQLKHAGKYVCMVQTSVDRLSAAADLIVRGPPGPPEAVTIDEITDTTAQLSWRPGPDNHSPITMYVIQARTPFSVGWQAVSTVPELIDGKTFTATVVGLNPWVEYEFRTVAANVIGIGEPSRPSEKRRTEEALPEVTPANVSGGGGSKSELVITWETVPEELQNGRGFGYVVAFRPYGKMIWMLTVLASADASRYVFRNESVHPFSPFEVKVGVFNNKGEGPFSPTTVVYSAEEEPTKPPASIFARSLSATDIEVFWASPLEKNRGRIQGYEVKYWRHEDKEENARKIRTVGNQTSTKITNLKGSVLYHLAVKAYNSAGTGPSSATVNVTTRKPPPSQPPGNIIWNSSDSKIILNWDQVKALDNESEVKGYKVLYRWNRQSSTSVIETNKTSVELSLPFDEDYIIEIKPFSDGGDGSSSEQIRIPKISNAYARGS
The assay is described as follows: SPR, antibody captured by anti-human IgG Fc on CM5 chip, CNTN4 as analyte. The procedure: Specifically, in order to bind anti-human IgG Fc (capture antibody) using amine coupling, CM5 chip was mounted, running buffer was allowed to flow, the chip was activated, and then capture antibody was attached thereto. Dextrin to which capture antibody was not attached was deactivated using ethanolamine, and then regeneration was performed using 3M magnesium chloride to clear analyte except capture antibody. The A-01 prepared at a concentration of 0.05 μg/mL was allowed to flow for 30 seconds at a rate of 10 μL/min for binding. Thereafter, human CNTN4 (400 nM to 0.78 nM) prepared by sequential dilution as an antigen was allowed to flow at a rate of 30 μL/min for 3 minutes to be bound, and dissociation was performed for 5 minutes. Then, in order to clear all analytes attached to the capture antibody, a regeneration solution (3M magnesium chloride) was allowed to flow at a rate of 20 μL/min for 30 seconds, and regeneration was performed. For each concentration of antigen, binding of A-01, binding of antigen, dissociation, and regeneration were repeated in order.
Background: In SPR one partner is held on a chip, and binding of the other changes the refractive index at the surface.

Another assay deals with T2, human CNTN4-10xHis (human, UniProt Q8IWV2 19-1000).
T2 sequence: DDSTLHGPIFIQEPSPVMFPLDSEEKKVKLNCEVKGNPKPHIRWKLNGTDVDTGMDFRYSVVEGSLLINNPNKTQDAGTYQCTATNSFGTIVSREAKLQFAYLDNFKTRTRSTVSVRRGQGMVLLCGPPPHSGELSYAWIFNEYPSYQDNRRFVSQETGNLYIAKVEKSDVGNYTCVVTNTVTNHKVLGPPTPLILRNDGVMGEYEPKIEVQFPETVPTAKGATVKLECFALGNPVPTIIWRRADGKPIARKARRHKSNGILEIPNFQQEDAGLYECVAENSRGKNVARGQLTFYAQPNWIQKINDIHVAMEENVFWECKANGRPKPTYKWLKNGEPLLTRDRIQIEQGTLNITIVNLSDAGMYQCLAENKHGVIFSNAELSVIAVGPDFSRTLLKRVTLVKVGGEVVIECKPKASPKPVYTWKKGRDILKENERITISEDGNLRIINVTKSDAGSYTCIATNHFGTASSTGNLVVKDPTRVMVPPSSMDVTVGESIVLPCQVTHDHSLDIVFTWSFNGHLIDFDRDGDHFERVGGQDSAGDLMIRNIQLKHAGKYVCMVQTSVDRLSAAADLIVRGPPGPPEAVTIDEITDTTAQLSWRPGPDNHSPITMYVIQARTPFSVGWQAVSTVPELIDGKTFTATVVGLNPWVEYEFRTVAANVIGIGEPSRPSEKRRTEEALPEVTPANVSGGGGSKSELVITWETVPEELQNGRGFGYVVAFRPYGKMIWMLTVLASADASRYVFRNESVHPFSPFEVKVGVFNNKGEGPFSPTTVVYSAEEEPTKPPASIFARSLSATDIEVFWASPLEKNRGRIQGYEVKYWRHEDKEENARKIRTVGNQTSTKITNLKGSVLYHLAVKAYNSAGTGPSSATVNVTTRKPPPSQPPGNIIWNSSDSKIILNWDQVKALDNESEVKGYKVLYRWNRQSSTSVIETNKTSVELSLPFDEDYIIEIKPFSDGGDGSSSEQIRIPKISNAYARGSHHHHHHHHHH
The assay is described as follows: ELISA, plate coated with CNTN4-10xHis, anti-human Fc-HRP. The procedure:
An ELISA test was performed on A-01 prepared in Example 2.1. An ELISA plate was coated with 200 ng of antigens (human CNTN4-10xHis or mouse CNTN4-10xHis). For antibody binding, A-01 was serially diluted from a maximum of 1 μM to 0.0001 nM, thereby binding to the antigen. Anti-human Fc-HRP was used as a secondary antibody for antibody detection. Color was developed using ABTS, which is a color developing reagent, and the absorbance at 405 nm was measured.

B1: anti-CNTN4 129 chimeric IgG4-S228P (antibody, V domains shown)
VH: AVTLDESEGGLQTPGGALSLVCKASGFTFSSFNMFWVRQAPGKGLEYVAEISGGGGSTWYAPAVKGRATISRDNGQSTVRLQLNNLRAEDTGTYYCAKSADTWSYGAATIDAWGHGTEVIVSS
VL: ALTQPSSVSANLGETVKITCSGSSGSYGWYQQKSPGSAPVTLIYDNTNRPSDIPSRFSGSGSGSTGTLTITGVRAEDEAVYYCGGYDGSTDVFGAGTTLTVL
notes: chicken-human chimeric IgG4-S228P made from S129, kappa light chain constant region (Kappa select); also called A-01; LAHA
Take B1: the Kd – broadly, the equilibrium constant for the complex coming apart – in the assay with Human CNTN-4 protein came out at 33.6 nM. Also, a half-maximal effect with human CNTN4-10xHis (EC50) was put at 0.011 nM.

For the origin of these results see patent publication US20240182563A1 (GENOME, published 2024).
